Measured values: US20170224836A1 (Novartis, published 2017)
Like-named read-outs stand apart in the source and are kept apart here.

What was measured:
rat CDH6 on cells = target: T1, rat CDH6 on cells (rat, UniProt P55280 54-789); experiment: FACS on CHO-ratCDH6 cells
T1 sequence (looked up): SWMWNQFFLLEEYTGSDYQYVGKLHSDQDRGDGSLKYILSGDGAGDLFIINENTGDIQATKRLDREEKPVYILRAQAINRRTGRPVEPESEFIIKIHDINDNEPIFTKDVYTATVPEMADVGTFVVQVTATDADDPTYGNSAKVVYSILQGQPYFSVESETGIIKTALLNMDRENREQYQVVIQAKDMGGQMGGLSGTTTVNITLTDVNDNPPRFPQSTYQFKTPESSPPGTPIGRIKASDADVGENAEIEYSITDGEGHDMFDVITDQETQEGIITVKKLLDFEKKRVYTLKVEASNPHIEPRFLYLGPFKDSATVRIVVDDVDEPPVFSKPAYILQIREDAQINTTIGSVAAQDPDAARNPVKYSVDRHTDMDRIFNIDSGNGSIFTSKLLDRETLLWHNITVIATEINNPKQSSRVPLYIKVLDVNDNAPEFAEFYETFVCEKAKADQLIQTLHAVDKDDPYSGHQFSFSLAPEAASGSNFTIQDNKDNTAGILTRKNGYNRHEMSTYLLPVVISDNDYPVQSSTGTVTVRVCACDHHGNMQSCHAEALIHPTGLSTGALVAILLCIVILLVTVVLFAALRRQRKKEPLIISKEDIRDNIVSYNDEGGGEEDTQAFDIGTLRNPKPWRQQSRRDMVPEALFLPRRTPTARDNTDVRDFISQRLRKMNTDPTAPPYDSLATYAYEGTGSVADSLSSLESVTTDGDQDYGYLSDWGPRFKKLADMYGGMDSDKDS

human CDH6 on cells = target: T2, human CDH6 on cells (human, UniProt P55285 54-790); experiment: FACS on OVCAR3 cells
T2 sequence: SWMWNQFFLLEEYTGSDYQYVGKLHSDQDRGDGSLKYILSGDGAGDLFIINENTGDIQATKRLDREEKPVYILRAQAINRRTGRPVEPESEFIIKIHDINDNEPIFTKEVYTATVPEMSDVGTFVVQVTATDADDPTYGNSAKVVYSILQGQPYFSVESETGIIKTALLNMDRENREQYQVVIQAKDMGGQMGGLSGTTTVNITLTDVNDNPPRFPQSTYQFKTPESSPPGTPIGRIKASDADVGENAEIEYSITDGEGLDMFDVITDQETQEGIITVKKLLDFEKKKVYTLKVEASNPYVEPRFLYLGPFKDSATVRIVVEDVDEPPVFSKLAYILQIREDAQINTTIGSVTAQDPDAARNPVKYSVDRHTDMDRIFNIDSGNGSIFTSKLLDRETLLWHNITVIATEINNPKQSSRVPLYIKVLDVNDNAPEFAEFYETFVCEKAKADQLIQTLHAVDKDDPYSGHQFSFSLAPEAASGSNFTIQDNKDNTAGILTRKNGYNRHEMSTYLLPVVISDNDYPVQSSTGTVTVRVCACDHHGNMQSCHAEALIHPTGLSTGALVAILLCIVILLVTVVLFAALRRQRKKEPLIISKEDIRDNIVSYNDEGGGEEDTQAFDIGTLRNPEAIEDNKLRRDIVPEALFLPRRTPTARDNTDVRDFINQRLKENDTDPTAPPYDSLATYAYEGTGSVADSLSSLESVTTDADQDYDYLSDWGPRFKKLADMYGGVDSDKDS

hCDH6aa54-615 APPavi [1] = target: T3, hCDH6aa54-615 APPavi (human, UniProt P55285 54-615); experiment: SPR binning
T3 sequence: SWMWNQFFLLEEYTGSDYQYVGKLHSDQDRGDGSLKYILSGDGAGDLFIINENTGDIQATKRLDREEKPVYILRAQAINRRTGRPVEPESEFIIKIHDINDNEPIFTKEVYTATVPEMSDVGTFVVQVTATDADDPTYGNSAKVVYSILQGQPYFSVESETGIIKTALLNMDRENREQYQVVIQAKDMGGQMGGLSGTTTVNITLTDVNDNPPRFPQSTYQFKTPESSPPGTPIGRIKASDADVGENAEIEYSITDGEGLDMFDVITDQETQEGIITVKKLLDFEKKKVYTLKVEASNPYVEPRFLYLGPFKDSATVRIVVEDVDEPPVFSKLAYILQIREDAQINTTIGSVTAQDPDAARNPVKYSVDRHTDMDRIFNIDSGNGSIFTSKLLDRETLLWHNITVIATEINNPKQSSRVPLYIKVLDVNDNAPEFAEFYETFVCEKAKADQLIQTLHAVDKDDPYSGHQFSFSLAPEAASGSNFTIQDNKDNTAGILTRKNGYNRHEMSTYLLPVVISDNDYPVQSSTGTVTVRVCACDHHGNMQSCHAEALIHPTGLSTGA

hCDH6aa54-615 APPavi [2] = target: T3, hCDH6aa54-615 APPavi; experiment: SPR binning; remark: listed apart in the source
hCDH6aa54-615 APPavi [3] = target: T3, hCDH6aa54-615 APPavi; experiment: SPR binning; remark: listed apart in the source
hCDH6aa54-615 APPavi [4] = target: T3, hCDH6aa54-615 APPavi; experiment: SPR binning; remark: listed apart in the source

B1: NOV0712 (antibody, human IgG1, kappa, V domains shown)
VH: QVQLLESGGGLVQPGGSLRLSCAASGFTFSSHGMHWVRQAPGKGLEWVSVISGSGSNTGYADSVKGRFTISRDNSKNTLYLQMNSLRAEDTAVYYCARQWGSYAFDSWGQGTLVTVSS
VL: DIQMTQSPSSLSASVGDRVTITCRASQSISSYLNWYQQKPGKAPKLLIYAVSTLQSGVPSRFSGSGSGTDFTLTISSLQPEDFATYYCQQSGTFPPTTFGQGTKVEIKR
EC50 (read off the curve) (rat CDH6 on cells): ~1000 pM | EC50 (read off the curve) (human CDH6 on cells): ~400 pM | response of secondary antibody on primary antibody-CDH6 complex (hCDH6aa54-615 APPavi [1]): -3.26 | response of secondary antibody on primary antibody-CDH6 complex (hCDH6aa54-615 APPavi [2]): 5.12 | response of secondary antibody on primary antibody-CDH6 complex (hCDH6aa54-615 APPavi [3]): -1.82 | response of secondary antibody on primary antibody-CDH6 complex (hCDH6aa54-615 APPavi [4]): 16.5
